Results taken from US20260217793A1 (Chugai, published 2026).

T1: FcγRIIa type H extracellular domain with C-terminal His tag (human, UniProt P12318 34-217)
T1 sequence (looked up): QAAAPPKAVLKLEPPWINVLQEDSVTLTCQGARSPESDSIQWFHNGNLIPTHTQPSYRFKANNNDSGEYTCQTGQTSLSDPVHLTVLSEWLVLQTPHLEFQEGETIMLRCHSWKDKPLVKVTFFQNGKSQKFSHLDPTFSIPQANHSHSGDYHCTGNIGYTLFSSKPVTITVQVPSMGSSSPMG

T2: human FcγRIIa type H (His131) extracellular domain with C-terminal His tag (human, UniProt P12318 34-217)
T2 sequence (looked up): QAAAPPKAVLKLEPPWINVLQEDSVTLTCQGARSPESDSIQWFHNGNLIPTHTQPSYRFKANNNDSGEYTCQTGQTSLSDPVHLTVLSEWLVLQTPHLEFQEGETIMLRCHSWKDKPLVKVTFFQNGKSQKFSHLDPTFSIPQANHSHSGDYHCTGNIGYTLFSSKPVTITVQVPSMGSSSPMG

T3: human FcγRIIa type R (Arg131) extracellular domain with C-terminal His tag (human, UniProt P12318 34-217)
T3 sequence (looked up): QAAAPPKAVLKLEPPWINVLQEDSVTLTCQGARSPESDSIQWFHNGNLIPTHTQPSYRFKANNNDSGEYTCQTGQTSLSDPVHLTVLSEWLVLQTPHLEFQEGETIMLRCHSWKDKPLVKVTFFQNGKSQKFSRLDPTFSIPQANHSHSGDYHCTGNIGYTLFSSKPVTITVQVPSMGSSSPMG

T4: human FcγRIIb extracellular domain with C-terminal His tag (human, UniProt P31994 43-217)
T4 sequence (looked up): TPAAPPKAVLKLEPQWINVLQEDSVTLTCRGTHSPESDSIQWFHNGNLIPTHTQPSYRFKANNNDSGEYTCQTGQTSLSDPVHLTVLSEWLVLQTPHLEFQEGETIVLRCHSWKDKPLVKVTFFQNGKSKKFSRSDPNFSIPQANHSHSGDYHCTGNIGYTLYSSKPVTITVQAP


What was measured:
Assay in all cases: SPR
[1] = molecular target: T1, FcγRIIa type H extracellular domain …
[2] = molecular target: FcγRIIIa type V extracellular domain with C-terminal His tag (human, UniProt P08637 17-208)
FcγRIIIa type V extracellular domain with C-terminal His tag, sequence (P08637 17-208 F176V): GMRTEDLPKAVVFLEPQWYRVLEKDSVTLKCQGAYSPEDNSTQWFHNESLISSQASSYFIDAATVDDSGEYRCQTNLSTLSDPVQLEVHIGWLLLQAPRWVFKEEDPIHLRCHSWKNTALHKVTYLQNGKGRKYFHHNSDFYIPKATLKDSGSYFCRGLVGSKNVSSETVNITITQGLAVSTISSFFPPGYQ

[3] = molecular target: human FcγRIIIa type V (Val158) extracellular domain with C-terminal His tag (human, UniProt P08637 17-208)
human FcγRIIIa type V (Val158) extracellular domain with C-terminal His tag, sequence (P08637 17-208 F176V): as above

[4] = molecular target: T2, human FcγRIIa type H (His131) …
[5] = molecular target: T3, human FcγRIIa type R (Arg131) …
[6] = molecular target: T4, human FcγRIIb extracellular domain with …

Kd [1] | Kd [2] | Kd [3] | Kd [4] | KD (IIaR) of parent polypeptide/KD (IIaR) of altered polypeptide [5] | KD (IIb) of parent polypeptide/KD (IIb) of altered polypeptide [6] | Binder
9.7 µM | 39 µM |  |  |  |  | IL6R-BP230/IL6R-L (antibody, human IgG1, kappa) heavy: QVQLQESGPGLVKPSETLSLTCAVSGHSISHDHAWSWVRQPPGEGLEWIGFISYSGITNYNPSLQGRVTISRDNSKNTLYLQMNSLRAEDTAVYYCARSLARTTAMDYWGEGTLVTVSSASTKGPSVFPLAPSSKSTSGGTAALGCLVKDYFPEPVTVSWNSGALTSGVHTFPAVLQSSGLYSLSSVVTVPSSSLGTQTYICNVNHKPSNTKVDKKVEPKSCDKTHTCPPCPAPDLLGDDSVFLFPPKPKDTLMISRTPEVTCVVVDVSDEDGEVKFNWYVDGVEVHNAKTKPREEQDNSTYRVVSVLTVLHQDWLNGKEYKCKVSNKALPRPIEKTISKAKGQPREPQVYTLPPSRDELTKNQVSLTCLVKGFYPSDIAVEWESNGQPENNYKTTPPVLDSDGSFFLYSKLTVDKSRWQQGNVFSCSVMHEALHNHYTQESLSLSP light: not shown
 |  | 24 µM | 11 µM | 1.9 | 196 | IL6R-BP549/IL6R-L (antibody, human IgG1, kappa) heavy: QVQLQESGPGLVKPSETLSLTCAVSGHSISHDHAWSWVRQPPGEGLEWIGFISYSGITNYNPSLQGRVTISRDNSKNTLYLQMNSLRAEDTAVYYCARSLARTTAMDYWGEGTLVTVSSASTKGPSVFPLAPSSKSTSGGTAALGCLVKDYFPEPVTVSWNSGALTSGVHTFPAVLQSSGLYSLSSVVTVPSSSLGTQTYICNVNHKPSNTKVDKKVEPKSCDKTHTCPPCPAPELLGDDSVFLFPPKPKDTLMISRTPEVTCVVVDVGEEDGEVKFNWYVDGVEVHNAKTKPREEQYNSTYRVVSVLTVLHQDWLNGKEYKCKVSNKALPRPIEKTISKAKGQPREPQVYTLPPSRDELTKNQVSLTCLVKGFYPSDIAVEWESNGQPENNYKTTPPVLDSDGSFFLYSKLTVDKSRWQQGNVFSCSVMHEALHNHYTQESLSLSP light: not shown
7.5 µM | 35 µM |  |  |  |  | IL6R-BP547/IL6R-L (antibody, human IgG1, kappa) heavy: QVQLQESGPGLVKPSETLSLTCAVSGHSISHDHAWSWVRQPPGEGLEWIGFISYSGITNYNPSLQGRVTISRDNSKNTLYLQMNSLRAEDTAVYYCARSLARTTAMDYWGEGTLVTVSSASTKGPSVFPLAPSSKSTSGGTAALGCLVKDYFPEPVTVSWNSGALTSGVHTFPAVLQSSGLYSLSSVVTVPSSSLGTQTYICNVNHKPSNTKVDKKVEPKSCDKTHTCPPCPAPDLLGDDSVFLFPPKPKDTLMISRTPEVTCVVVDVSDEDGEVKFNWYVDGVEVHNAKTKPREEQDNSTYRVVSVLTVLHQDWLNGKEYKCKVSNKALPRPIEKTISKAKGQPREPQVYTLPPSRDELTKNQVSLTCLVKGFYPSDIAVEWESNGQPENNYKTTPPVLDSDGSFFLYSRLTVDKSRWQQGNVFSCSVMHEALHNHYTQESLSLSP light: not shown
 |  | 49 µM | 10 µM | 1.9 | 141 | IL6R-BP564/IL6R-L (antibody, human IgG1, kappa) heavy: QVQLQESGPGLVKPSETLSLTCAVSGHSISHDHAWSWVRQPPGEGLEWIGFISYSGITNYNPSLQGRVTISRDNSKNTLYLQMNSLRAEDTAVYYCARSLARTTAMDYWGEGTLVTVSSASTKGPSVFPLAPSSKSTSGGTAALGCLVKDYFPEPVTVSWNSGALTSGVHTFPAVLQSSGLYSLSSVVTVPSSSLGTQTYICNVNHKPSNTKVDKKVEPKSCDKTHTCPPCPAPELLGDDSVFLFPPKPKDTLMISRTPEVTCVVVDVSEEDGDVKFNWYVDGVEVHNAKTKPREEQDNSTYRVVSVLTVLHQDWLNGKEYKCKVSNKALPRPIEKTISKAKGQPREPQVYTLPPSRDELTKNQVSLTCLVKGFYPSDIAVEWESNGQPENNYKTTPPVLDSDGSFFLYSKLTVDKSRWQQGNVFSCSVMHEALHNHYTQESLSLSP light: not shown
 |  | 41 µM | 31 µM | 0.3 | 16.8 | IL6R-BP560/IL6R-L (antibody, human IgG1, kappa) heavy: QVQLQESGPGLVKPSETLSLTCAVSGHSISHDHAWSWVRQPPGEGLEWIGFISYSGITNYNPSLQGRVTISRDNSKNTLYLQMNSLRAEDTAVYYCARSLARTTAMDYWGEGTLVTVSSASTKGPSVFPLAPSSKSTSGGTAALGCLVKDYFPEPVTVSWNSGALTSGVHTFPAVLQSSGLYSLSSVVTVPSSSLGTQTYICNVNHKPSNTKVDKKVEPKSCDKTHTCPPCPAPELLGGDSVFLFPPKPKDTLMISRTPEVTCVVVDVGEEDGEVKFNWYVDGVEVHNAKTKPREEQDNSTYRVVSVLTVLHQDWLNGKEYKCKVSNKALPRPIEKTISKAKGQPREPQVYTLPPSRDELTKNQVSLTCLVKGFYPSDIAVEWESNGQPENNYKTTPPVLDSDGSFFLYSKLTVDKSRWQQGNVFSCSVMHEALHNHYTQESLSLSP light: not shown
 |  | 53 µM | 11 µM | 1.6 | 131 | IL6R-BP562/IL6R-L (antibody, human IgG1, kappa) heavy: QVQLQESGPGLVKPSETLSLTCAVSGHSISHDHAWSWVRQPPGEGLEWIGFISYSGITNYNPSLQGRVTISRDNSKNTLYLQMNSLRAEDTAVYYCARSLARTTAMDYWGEGTLVTVSSASTKGPSVFPLAPSSKSTSGGTAALGCLVKDYFPEPVTVSWNSGALTSGVHTFPAVLQSSGLYSLSSVVTVPSSSLGTQTYICNVNHKPSNTKVDKKVEPKSCDKTHTCPPCPAPELLGDDSVFLFPPKPKDTLMISRTPEVTCVVVDVSDEDGDVKFNWYVDGVEVHNAKTKPREEQDNSTYRVVSVLTVLHQDWLNGKEYKCKVSNKALPRPIEKTISKAKGQPREPQVYTLPPSRDELTKNQVSLTCLVKGFYPSDIAVEWESNGQPENNYKTTPPVLDSDGSFFLYSKLTVDKSRWQQGNVFSCSVMHEALHNHYTQESLSLSP light: not shown
9.1 µM | 45 µM |  |  |  |  | IL6R-BP545/IL6R-L (antibody, human IgG1, kappa) heavy: QVQLQESGPGLVKPSETLSLTCAVSGHSISHDHAWSWVRQPPGEGLEWIGFISYSGITNYNPSLQGRVTISRDNSKNTLYLQMNSLRAEDTAVYYCARSLARTTAMDYWGEGTLVTVSSASTKGPSVFPLAPSSKSTSGGTAALGCLVKDYFPEPVTVSWNSGALTSGVHTFPAVLQSSGLYSLSSVVTVPSSSLGTQTYICNVNHKPSNTKVDKKVEPKSCDKTHTCPPCPAPDLLGDDSVFLFPPKPKDTLMISRTPEVTCVVVDVSDEDGEVKFNWYVDGVEVHNAKTKPREEQDNSTYRVVSVLTVLHQDWLNGKEYKCKVSNKALPRPIEKTISKAKGQPREPQVYTLPPSREELTKNQVSLTCLVKGFYPSDIAVEWESNGQPENNYKTTPPVLDSDGSFFLYSKLTVDKSRWQQGNVFSCSVMHEALHNHYTQESLSLSP light: not shown
 |  | 44 µM | 20 µM | 0.7 | 110 | IL6R-BP559/IL6R-L (antibody, human IgG1, kappa) heavy: QVQLQESGPGLVKPSETLSLTCAVSGHSISHDHAWSWVRQPPGEGLEWIGFISYSGITNYNPSLQGRVTISRDNSKNTLYLQMNSLRAEDTAVYYCARSLARTTAMDYWGEGTLVTVSSASTKGPSVFPLAPSSKSTSGGTAALGCLVKDYFPEPVTVSWNSGALTSGVHTFPAVLQSSGLYSLSSVVTVPSSSLGTQTYICNVNHKPSNTKVDKKVEPKSCDKTHTCPPCPAPELLGGDSVFLFPPKPKDTLMISRTPEVTCVVIDVAEEDGDVKFNWYVDGVEVHNAKTKPREEQDNSTYRVVSVLTVLHQDWLNGKEYKCKVSNKALPAPIEKTISKAKGQPREPQVYTLPPSRDELTKNQVSLTCLVKGFYPSDIAVEWESNGQPENNYKTTPPVLDSDGSFFLYSKLTVDKSRWQQGNVFSCSVMHEALHNHYTQESLSLSP light: not shown
 |  | 29 µM | 15 µM |  |  | IL6R-BP557/IL6R-L (antibody, human IgG1, kappa) heavy: QVQLQESGPGLVKPSETLSLTCAVSGHSISHDHAWSWVRQPPGEGLEWIGFISYSGITNYNPSLQGRVTISRDNSKNTLYLQMNSLRAEDTAVYYCARSLARTTAMDYWGEGTLVTVSSASTKGPSVFPLAPSSKSTSGGTAALGCLVKDYFPEPVTVSWNSGALTSGVHTFPAVLQSSGLYSLSSVVTVPSSSLGTQTYICNVNHKPSNTKVDKKVEPKSCDKTHTCPPCPAPELLGDDSVFLFPPKPKDTLMISRTPEVTCVVVDVGDEDGEVKFNWYVDGVEVHNAKTKPREEQDNSTYRVVSVLTVLHQDWLNGKEYKCKVSNKALPRPIEKTISKAKGQPREPQVYTLPPSRDELTKNQVSLTCLVKGFYPSDIAVEWESNGQPENNYKTTPPVLDSDGSFFLYSKLTVDKSRWQQGNVFSCSVMHEALHNHYTQESLSLSP light: not shown
9.7 µM | 43 µM |  |  |  |  | IL6R-BP542/IL6R-L (antibody, human IgG1, kappa) heavy: QVQLQESGPGLVKPSETLSLTCAVSGHSISHDHAWSWVRQPPGEGLEWIGFISYSGITNYNPSLQGRVTISRDNSKNTLYLQMNSLRAEDTAVYYCARSLARTTAMDYWGEGTLVTVSSASTKGPSVFPLAPSSKSTSGGTAALGCLVKDYFPEPVTVSWNSGALTSGVHTFPAVLQSSGLYSLSSVVTVPSSSLGTQTYICNVNHKPSNTKVDKKVEPKSCDKTHTCPPCPAPDLLGDDSVFLFPPKPKDTLMISRTPEVTCVVVDVSDEDGEVKFNWYVDGVEVHNAKTKPREEQFNSTYRVVSVLTVLHQDWLNGKEYKCKVSNKALPRPIEKTISKAKGQPREPQVYTLPPSRDELTKNQVSLTCLVKGFYPSDIAVEWESNGQPENNYKTTPPVLDSDGSFFLYSKLTVDKSRWQQGNVFSCSVMHEALHNHYTQESLSLSP light: not shown
